# Ends that are not written are not given here.
# T1: mouse C-terminal medin peptide (mouse, also: conjugated to OVA in the ELISA)
# T1 construct: also called mouse c-terminal peptide; mouse C-terminal peptide-OVA
# T1 peptide: CGGHIQYVA
# T2: full length human medin (50 aa) (human)
# T2 construct: Synthetic peptide (American Peptide, Cat # 366587 in the Western blot); Monomer and multimer/oligomer bands seen in Western blot; also called medin peptide; full-length human medin peptide
# T2 peptide: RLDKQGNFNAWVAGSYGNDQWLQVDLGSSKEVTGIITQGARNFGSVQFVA
# T3: human lactadherin polypeptide (Sino Biological) (human, UniProt Q08431 24-387)
# T3 construct: Bought protein; also called MFG-E8; synthetic lactadherin polypeptide
# T3 sequence (looked up): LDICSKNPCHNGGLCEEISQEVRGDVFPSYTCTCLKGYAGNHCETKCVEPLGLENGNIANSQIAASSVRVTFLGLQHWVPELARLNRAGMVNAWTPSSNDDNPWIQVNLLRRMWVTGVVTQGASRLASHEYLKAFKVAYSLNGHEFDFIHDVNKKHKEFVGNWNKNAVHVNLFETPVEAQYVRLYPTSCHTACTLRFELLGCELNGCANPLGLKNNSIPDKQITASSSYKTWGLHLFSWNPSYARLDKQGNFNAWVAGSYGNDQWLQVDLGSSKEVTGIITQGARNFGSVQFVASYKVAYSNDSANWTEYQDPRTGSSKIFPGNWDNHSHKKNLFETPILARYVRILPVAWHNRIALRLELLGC
# T4: human C-terminal medin peptide (human, also: conjugated to OVA in the ELISA)
# T4 construct: also called human c-terminal peptide; human C-terminal peptide-OVA
# T4 peptide: CGGSVQFVA
# Key:
# [1] = biological target: T1, mouse C-terminal medin peptide; assay: direct ELISA, plate coated with mouse C-terminal peptide-OVA at 2.5 ug/mL, goat anti-mouse HRP, ABTS, OD 405 nm
# Description: (§1) To further characterize antibodies of interest, ELISA titration curves were generated to determine antibody binding to human lactadherin (FIG. 1A, Sino Biological In.), full-length human medin peptide (50 aa, FIGS. 1A and B) or to the human or mouse C-terminal peptides (see FIG. 1B). Plates were coated with full length human medin, human C-terminal peptide-OVA, mouse C-terminal peptide-OVA and lactadherin at 2.5 ug/mL, 50 uL/well and incubated for about 1 hour at room temperature. The plates were then blocked with 1% BSA/PBS at room temperature. After about 15 minutes, plates were emptied and antibodies of interest were then added to the plates and after a 1 hour incubation at room temperature, the plates were washed with wash buffer. The detection antibody, goat anti-mouse antibody conjugated to horseradish peroxidase (Jackson ImmunoResearch) diluted 1:2,000 in 0.5% BSA/PBS/TBS-T was added to plates and incubated for 1 hour at room temperature. Finally, the plates were washed and then incubated with ABTS substrate (Thermo Scientific) for 15 minutes at room temperature to visualize signal and read at 405 nm on a microplate reader.
# [2] = biological target: T2, full length human medin (50 aa); assay: Biacore SPR, antibody captured on anti-mouse chip, medin as analyte, global 1:1 fit
# Description: Anti-mouse antibody (GE Heathcare) was immobilized on a sensor chip […] (lacking dextran chains) via amine coupling following the instructions provided in the GE Healthcare anti-mouse kit. Anti-medin monoclonal antibodies of interest were then captured on the chip at a level that ensured a maximum binding of analyte at 30-50 RU. Various concentrations of analyte, full-length human medin (50 aa, FIGS. 1A and B) were passed over the captured ligand at 30 ul/min in running buffer (Hepes buffered saline+0.05% P-20, 1 mg/mL BSA) in either 2-fold or 3-fold dilutions, depending on the magnitude of the spanned concentration range. For each concentration, the reaction proceeded for a period of time needed for the higher analyte concentrations to reach equilibrium during association, as well as at least 10% of signal to decay during dissociation. At least one concentration (not the highest or lowest) was run in duplicate. […] The data were doubled referenced to both an irrelevant sensor not containing the medin antibodies and a 0 nM concentration of medin to account for the dissociation of antibodies from the anti-mouse sensor. The data was then analyzed with a global 1:1 fit using the Biacore software.
# [3] = biological target: T3, human lactadherin polypeptide (Sino …); assay: direct ELISA, plate coated with human lactadherin at 2.5 ug/mL, goat anti-mouse HRP, ABTS, OD 405 nm
# Description: as §1
# [4] = biological target: T2, full length human medin (50 aa); assay: direct ELISA, plate coated with full length human medin at 2.5 ug/mL, goat anti-mouse HRP, ABTS, OD 405 nm
# Description: as §1
# [5] = biological target: T4, human C-terminal medin peptide; assay: direct ELISA, plate coated with human C-terminal peptide-OVA at 2.5 ug/mL, goat anti-mouse HRP, ABTS, OD 405 nm
# Description: as §1
binding result [1],Kd [2],koff [2],kon [2],EC50 (read off the curve) [3],EC50 (read off the curve) [4],binding result [5],EC50 (read off the curve) [1],EC50 (read off the curve) [5],Binder
no binding (tested: 10 ug/ml),1.04 nM,0.000951 s⁻¹,1.11e+06 M⁻¹ s⁻¹,~0.2 µg/mL,~0.1 µg/mL,no binding (tested: 10 ug/ml),,,"mouse monoclonal antibody 6B3 (antibody, V domains shown, Mouse hybridoma IgG raised against full-length human medin; also called m6B3; PRT6B3) VH: QVTLKESGPGILQPSQTLSLTCSFSGFSLSTSDMGVGWIRQPSGKGLEWLAHIWWNDNKYYNIALKNRLTVSKDTSNNQVFLKIASVDTADTATYYCARLVGSWFAYWGQGTLVTVSA VL: DIQMTQTTSSLSASLGDRVTISCRASQDISNFLSWYHQKPDGTVKLLIYYTSRLHSGVPPRFSGSGSGTDYSLTISNLEQEDIATYFCQQGKTLPPTFGGGTKLEIK"
,12.1 nM,0.00712 s⁻¹,590000 M⁻¹ s⁻¹,,~0.04 µg/mL,,~0.05 µg/mL,~0.07 µg/mL,"mouse monoclonal antibody 18G1 (antibody, V domains shown, Mouse hybridoma IgG raised against the human C-terminal medin peptide; also called m18G1; PRT18G1) VH: EVQLVESGGGLVKPGGSLKLSCAASGFTFSSYAMSWVRQTPEKRLEWVAGISSGDYYTYYPDTVKGRFTISRDNARNTLYLQMRSLRSEDTAMYYCVRGRGNTGPRVGYWGQGTSVTVSS VL: DIVMTQSQKFMSTSVGDRVSVTCKASQNVGTNVAWYQQKPGQSPKALIYSASYRYSGVPDRFTGSGSGTDFTLTISNVQSEDLAEYFCQQYNSFPLTFGAGTKLELK"
